Data published in paper doi:10.1101/2020.07.09.195057 (bioRxiv, 2020).

T1: Dcp1/Dcp2core (Schizosaccharomyces pombe, UniProt Q9P805;O13828 1-127;1-243)
T1 sequence 1: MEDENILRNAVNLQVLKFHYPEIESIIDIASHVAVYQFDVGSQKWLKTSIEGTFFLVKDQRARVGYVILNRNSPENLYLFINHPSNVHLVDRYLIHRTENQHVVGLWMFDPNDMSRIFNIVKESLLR
T1 sequence 2: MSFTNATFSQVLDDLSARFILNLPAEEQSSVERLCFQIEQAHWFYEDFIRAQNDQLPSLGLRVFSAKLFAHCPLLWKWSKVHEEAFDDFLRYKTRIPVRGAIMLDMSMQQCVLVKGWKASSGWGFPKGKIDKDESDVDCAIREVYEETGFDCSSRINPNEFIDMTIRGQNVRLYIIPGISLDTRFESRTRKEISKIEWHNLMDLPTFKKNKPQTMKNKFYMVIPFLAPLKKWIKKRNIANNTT

T2: Dcp1(1-127) (S. pombe, UniProt Q9P805 1-127, perdeuterated background, 1H/13C-labelled ILVMA terminal methyl groups)
T2 sequence (looked up): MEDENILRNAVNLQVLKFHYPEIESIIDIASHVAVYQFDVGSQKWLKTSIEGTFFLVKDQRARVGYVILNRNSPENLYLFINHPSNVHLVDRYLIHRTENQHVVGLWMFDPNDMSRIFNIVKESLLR


How the values were obtained:
[1] = biological target: T1, Dcp1/Dcp2core; test: fluorescence polarization
[2] = biological target: T2, Dcp1(1-127); test: co-purification

binding result [2] | Binder | binding result [1]
 | UUUUUUUUUUUUUUUUUUUUUUUUUUUUUU (ssRNA, 5' phosphate) [30U RNA] | binds
binds | Dcp2(1-504)_(eSrtA), sortase-ligated Dcp2ext with C-terminal StrepII (domain or fragment, S. pombe, residues 1-266 perdeuterated with 1H/13C-labelled ILVMA terminal methyl groups; 274-504 unlabelled) MSFTNATFSQVLDDLSARFILNLPAEEQSSVERLCFQIEQAHWFYEDFIRAQNDQLPSLGLRVFSAKLFAHCPLLWKWSKVHEEAFDDFLRYKTRIPVRGAIMLDMSMQQCVLVKGWKASSGWGFPKGKIDKDESDVDCAIREVYEETGFDCSSRINPNEFIDMTIRGQNVRLYIIPGISLDTRFESRTRKEISKIEWHNLMDLPTFKKNKPQTMKNKFYMVIPFLAPLKKWIKKRNIANNTTKEKNISVDVDADASSQLLSLLKSLPETGGGATPQPSTFPQPPVESHSSFDIKQKILHLLNEGNEPKSPIQLPPVSNLPLNPPIQSSNSRLSHDNNSFDPFAYLGLDPKNPSASFPRVVSQNNMLTNKPVLNNHFQQSMYSNLLKDQNSVQHLFAASDMPSPMELPSPSTVYHQVFYPPTSTSVSSYGLGKTPQPAYGSSSPYVNGHQTQQISSLPPFQSQTQFLARNSDNSGQSYNSEGDSNSKRLLSMLSQQDTTPSSST | 
